{"source": "paper PMC7247132", "about": "(BMC Proceedings, 2020)", "proteins": {"B1": {"name": "N-terminal His-tagged C5 (C5-His) single domain of immunoglobulin new antigen receptor (IgNAR) (domain or fragment)", "chain": "PKVYLLHPSTDEIDTENSATLMCLATNFHPAEIYVGWMANDTLLDSGYRTQVDSEKGSGSSFVTDRLRLTAAEWNSDTTYSCLVGHPSLNRDLIRSTNKSNGKPSSVNVSVVLSDTVKSCT"}}, "target": "the molecule itself", "experiment": "Tricine SDS-PAGE, non-reducing against reducing; purified C5-His deglycosylated with glycopeptidase F, 12% gel", "data": [{"protein": "B1", "values": [{"measurement": "stoichiometry N", "result": 2}]}]}
